“And” between values parts separate entries of the source, which are not always exact repeats. Equal entries are not always repeated.
Assays:
[1] = molecular target: Hsp21 after limited proteolysis with trypsin (NTR degraded) (A. thaliana) (UniProt P31170); experiment: native gel or EMSA; non-denaturing PAGE of purified protein; also of samples withdrawn during 1-30 min of limited trypsin proteolysis
[2] = molecular target: Hsp21^V181A, non-dodecameric mutational variant of Hsp21 (A. thaliana) (UniProt P31170); experiment: SEC-SAXS; online SEC-SAXS, Superdex 200 Increase 10/300, 50 mM HEPES pH 7.5, 100 mM NaCl, 0.1% Tween 20, 0.15 ml/min; retention times 80-84 min; EOM with a pool of dimers and hexamers

Chain of Hsp21 after limited proteolysis with trypsin (NTR degraded) (P31170 44-227): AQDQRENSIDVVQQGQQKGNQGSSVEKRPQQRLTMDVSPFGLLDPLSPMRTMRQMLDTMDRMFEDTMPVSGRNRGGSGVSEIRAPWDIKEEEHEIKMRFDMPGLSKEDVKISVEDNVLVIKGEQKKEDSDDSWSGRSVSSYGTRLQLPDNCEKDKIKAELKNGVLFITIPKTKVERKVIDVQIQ

stoichiometry N [1]	stoichiometry N [2]	Substance
12		Hsp21 after limited proteolysis with trypsin (NTR degraded) (from UniProt P31170 44-227) (domain or fragment)
	2 and 6	Hsp21^V181A, non-dodecameric mutational variant of Hsp21 (from UniProt P31170 44-227) (natural protein)
